According to paper PMC2991585:

Target: actin filament (barbed end) (UniProt P68135)
Experiment: seeded pyrene-actin polymerization

With “CPαβ(ΔC34) (from UniProt P47753 1-286; P47757-2 1-272) (complex)” as the substance, how does the Kd read?
Its Kd is 33.2 nM.
